Measurements published in US20230416363A1 (KADMON, published 2023).

Key:
mPD-1-Fc [1] = target: T1, mPD-1-Fc (mouse; human, UniProt Q02242 25-167, limits assumed); test: blocking ELISA, mPD-1 to PD-L1
T1 construct: domain: IgV domain; not shown: human IgG1 Fc
T1 sequence (looked up): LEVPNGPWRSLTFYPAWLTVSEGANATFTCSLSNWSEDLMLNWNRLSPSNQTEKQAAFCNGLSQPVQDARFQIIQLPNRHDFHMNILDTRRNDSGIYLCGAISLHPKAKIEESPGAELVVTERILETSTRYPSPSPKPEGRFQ

hPD-1-Fc [2] = target: T2, hPD-1-Fc (human, UniProt Q15116 25-167); test: SPR, range over experiments
T2 construct: domain: IgV domain; also called human PD-1-Fc; not shown: human IgG1 Fc
T2 sequence (Q15116 25-167 limits assumed): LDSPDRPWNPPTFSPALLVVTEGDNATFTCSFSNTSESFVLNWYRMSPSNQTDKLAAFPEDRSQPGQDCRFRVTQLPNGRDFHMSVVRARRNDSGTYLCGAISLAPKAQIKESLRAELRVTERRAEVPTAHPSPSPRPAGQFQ

[3] = target: T3, human PD-1 expressed on cells (human, UniProt Q15116 25-288); test: flow cytometry, hPD-1-Jurkat cells
T3 construct: whole, on cells
T3 sequence (Q15116 25-288): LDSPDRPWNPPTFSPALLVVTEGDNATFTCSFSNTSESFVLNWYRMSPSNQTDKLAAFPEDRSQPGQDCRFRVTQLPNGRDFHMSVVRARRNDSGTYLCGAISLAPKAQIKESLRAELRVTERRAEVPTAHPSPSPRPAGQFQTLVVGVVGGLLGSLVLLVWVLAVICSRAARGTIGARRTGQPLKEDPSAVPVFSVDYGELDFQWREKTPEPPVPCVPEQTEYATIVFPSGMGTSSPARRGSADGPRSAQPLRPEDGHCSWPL

[4] = target: T3, human PD-1 expressed on cells; test: cell-based or functional assay
hPD-1-Fc [5] = target: T2, hPD-1-Fc; test: SPR Biacore T200, PD-1-Fc immobilised
hPD-1-his [6] = target: T4, hPD-1-his (human, UniProt Q15116 25-167); test: SPR Biacore T200, PD-1-his immobilised
T4 construct: domain: IgV domain; monomer in solution; biotin-labelled where captured by streptavidin; also called biotin-hPD-1-his
T4 sequence (Q15116 other isoform, or with tags, fused parts or gaps limits assumed): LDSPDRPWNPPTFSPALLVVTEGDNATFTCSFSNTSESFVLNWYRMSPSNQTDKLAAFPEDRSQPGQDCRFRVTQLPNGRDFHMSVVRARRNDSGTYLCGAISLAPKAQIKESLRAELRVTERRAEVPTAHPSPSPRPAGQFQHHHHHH

[7] = target: T3, human PD-1 expressed on cells; test: flow cytometry, activated PBMC donor two
hPD-1-his [8] = target: T4, hPD-1-his; test: ELISA, PD-1-his on anti-his
hPD-1-Fc [9] = target: T2, hPD-1-Fc; test: ELISA, hPD1-Fc coated
[10] = target: T3, human PD-1 expressed on cells; test: flow cytometry, activated PBMC donor FA
hPD-1-his [11] = target: T4, hPD-1-his; test: ELISA, biotin-hPD-1-his on streptavidin
hPD-1-Fc [12] = target: T2, hPD-1-Fc; test: blocking ELISA, PD-1 to PD-L2
[13] = target: T3, human PD-1 expressed on cells; test: flow cytometry, hPD1-Jurkat cells
hPD-1-his [14] = target: T4, hPD-1-his; test: ELISA, biotin-PD-1-his on streptavidin
[15] = target: T3, human PD-1 expressed on cells; test: flow cytometry, SEB-activated PBMC donor
hPD-1-his [16] = target: T4, hPD-1-his; test: ELISA, hPD-1-his on anti-his
[17] = target: T3, human PD-1 expressed on cells; test: flow cytometry, SEB-activated PBMC donor two
[18] = target: T3, human PD-1 expressed on cells; test: flow cytometry, hPD-1-293 cells
hPD-1-Fc [19] = target: T2, hPD-1-Fc; test: blocking ELISA, PD-1 to PD-L1
hPD-1-Fc [20] = target: T2, hPD-1-Fc; test: ELISA, PD-1-Fc coated
hPD-1-Fc [21] = target: T2, hPD-1-Fc; test: SPR, Exp. 2
hPD-1-his [22] = target: T4, hPD-1-his; test: SPR, Exp. 2
[23] = target: T3, human PD-1 expressed on cells; test: flow cytometry, hPD1-293 cells
hPD-1-Fc [24] = target: T2, hPD-1-Fc; test: SPR, Exp. 1
hPD-1-his [25] = target: T4, hPD-1-his; test: SPR, Exp. 1
hPD-1-his [26] = target: T4, hPD-1-his; test: SPR, Exp. 4
hPD-1-Fc [27] = target: T2, hPD-1-Fc; test: SPR, Exp. 3
hPD-1-his [28] = target: T4, hPD-1-his; test: SPR, Exp. 3
hPD-1-Fc [29] = target: T2, hPD-1-Fc; test: blocking ELISA, hPD-1-Fc to hPD-L1-Fc
[30] = target: T5, mPD1 (soluble, ELISA of Examples 20 and 24) (mouse, UniProt Q02242 25-167, limits assumed); test: ELISA, mPD1
T5 construct: also called Biotin-mPD1
T5 sequence (looked up): T1 sequence (looked up)

mPD-1-his [31] = target: T6, mPD-1-his (mouse, UniProt Q02242 25-167, limits assumed); test: ELISA, mPD-1-his on streptavidin
T6 construct: domain: IgV domain
T6 sequence: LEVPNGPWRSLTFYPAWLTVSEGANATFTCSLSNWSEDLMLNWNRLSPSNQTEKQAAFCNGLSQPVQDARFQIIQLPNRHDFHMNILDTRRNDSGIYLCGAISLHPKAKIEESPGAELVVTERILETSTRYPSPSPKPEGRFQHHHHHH

[32] = target: T7, mouse PD-1 expressed on cells (mouse, UniProt Q02242 25-288); test: flow cytometry, mPD1-eff cells
T7 construct: whole, on cells
T7 sequence (looked up): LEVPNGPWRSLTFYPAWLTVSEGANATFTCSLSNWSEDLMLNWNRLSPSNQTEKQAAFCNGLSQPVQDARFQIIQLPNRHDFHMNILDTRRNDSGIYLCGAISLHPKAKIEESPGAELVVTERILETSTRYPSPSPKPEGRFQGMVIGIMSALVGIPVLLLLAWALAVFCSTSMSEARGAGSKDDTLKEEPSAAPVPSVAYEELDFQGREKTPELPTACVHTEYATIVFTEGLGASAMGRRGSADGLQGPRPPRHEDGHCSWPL

mPD-1-his [33] = target: T6, mPD-1-his; test: SPR Biacore, mPD1-his (second m3A7 row)
[34] = target: T7, mouse PD-1 expressed on cells; test: flow cytometry, mPD-1-293 cells
mPD-1-Fc [35] = target: T1, mPD-1-Fc; test: SPR Biacore, mPD1-Fc
hPD-1-Fc [36] = target: T2, hPD-1-Fc; test: SPR Biacore, hPD1-Fc (second m3A7 row)
[37] = target: T8, hPD1 (soluble, ELISA of Example 20) (human, UniProt Q15116 25-167, limits assumed); test: ELISA, hPD1
T8 sequence (Q15116 25-167 limits assumed): as the sequence (Q15116 25-167 limits assumed) above

mPD-1-Fc [38] = target: T1, mPD-1-Fc; test: ELISA, mPD-1-Fc on streptavidin
hPD-1-Fc [39] = target: T2, hPD-1-Fc; test: SPR Biacore, hPD1-Fc
[40] = target: T5, mPD1 (soluble, ELISA of Examples 20 and …); test: ELISA, biotin-mPD1 on streptavidin
[41] = target: T5, mPD1 (soluble, ELISA of Examples 20 and …); test: blocking ELISA, mPD1 to mPDL1
[42] = target: T7, mouse PD-1 expressed on cells; test: cell-based or functional assay
mPD-1-his [43] = target: T6, mPD-1-his; test: SPR Biacore, mPD1-his
[44] = target: T7, mouse PD-1 expressed on cells; test: cell-based or functional assay; remark: listed apart in the source
mPD-1-Fc [45] = target: T1, mPD-1-Fc; test: ELISA, mPD-1-Fc
mPD-1-Fc [46] = target: T1, mPD-1-Fc; test: SPR Biacore, mPD1-Fc (second m3A7 row)
[47] = target: T7, mouse PD-1 expressed on cells; test: flow cytometry, mPD1-293 cells
[48] = target: T8, hPD1 (soluble, ELISA of Example 20); test: blocking ELISA, hPD1 to hPDL1

B1: RMP1-14 (antibody, V domains shown)
VH: EVQLQESGPGLVKPSQSLSLTCSVTGYSITSSYRWNWIRKFPGNRLEWMGYINSAGISNYNPSLKRRISITRDTSKNQFFLQVNSVTTEDAATYYCARSDNMGTTPFTYWGQGTLVTVSS
VL: DIVMTQGTLPNPVPSGESVSITCRSSKSLLYSDGKTYLNWYLQRPGQSPQLLIYWMSTRASGVSDRFSGSGSGTDFTLKISGVEAEDVGIYYCQQGLEFPTFGGGTKLELK
- IC50 (mPD-1-Fc [1]): 0.635 nM

B2: 33C4 (antibody, V domains shown)
VH: QVQLVQSGAEVKKPGSSVKVSCKASGGTFSSSVISWVRQAPGQGLEWMGGIIPIFGTANYAQKFQGRVTITADESTSTAYMELSSLRSEDTAVYYCAREGLGCSGGSCYSGYYYGMDVWGQGTTVTVSS
VL: DIVMTQSPLSLPVTPGEPASISCRSSQSLLHSNGYNYLDWYLQKPGQSPQLLIYEASSLHTGVPDRFSGSGSGTDFTLKISRVEAEDVGVYYCMQGSHWPYTFGQGTKLEIK
notes: also called 780_39
- Kd (hPD-1-Fc [2]): 0.01 to 0.02 nM
- MFI, 5 nM [3]: 65.2 MFI
- EC50, Promega blockade bioassay [4]: 0.165 µg/mL
- Fold induction [4]: 6.24 fold
- Kd (hPD-1-Fc [5]): 0.575 nM
- Kd (hPD-1-his [6]): 6.73 nM
- EC50 [7]: 0.05 nM
- MFI at 25 nM [7]: 18.7 MFI
- EC50 (hPD-1-his [8]): 0.142 nM
- EC50 (hPD-1-Fc [9]): 0.177 nM
- OD450 at 10 nM (hPD-1-Fc [9]): 0.925 OD450
- EC50 [10]: 0.041 nM
- MFI at 25 nM [10]: 17.6 MFI
- EC50 (hPD-1-his [11]): 0.209 nM
- OD450 at 10 nM (hPD-1-his [11]): 0.95 OD450
- IC50 (hPD-1-Fc [12]): 3.3 nM
- Inhibition, % at 3.7 nM (hPD-1-Fc [12]): 53.4%
- Inhibition, % at 100 nM (hPD-1-Fc [12]): 94.6%
- EC50 [13]: 0.084 nM
- MFI at 5 nM [13]: 98.3 MFI
- EC50 (hPD-1-his [14]): 0.131 nM
- MFI, 5 nM [15]: 77.8 MFI
- EC50 (hPD-1-his [16]): 0.061 nM
- OD450 at 10 nM (hPD-1-his [16]): 0.578 OD450
- MFI, 5 nM [17]: 66.9 MFI
- MFI, 5 nM [18]: 179 MFI
- IC50 (hPD-1-Fc [19]): 2.77 nM
- Inhibition % at 50 nM (hPD-1-Fc [19]): 93.3%
- Inhibition, % at 5.56 nM (hPD-1-Fc [19]): 88.9%
- EC50 (hPD-1-Fc [20]): 0.128 nM
- Kd (hPD-1-Fc [21]): < 0.01 nM
- Kd (hPD-1-his [22]): 0.205 nM
- EC50 [23]: 0.075 nM
- MFI at 5 nM [23]: 48.2 MFI
- Kd (hPD-1-Fc [24]): < 0.022 nM
- Kd (hPD-1-his [25]): 0.704 nM
- Kd (hPD-1-his [26]): < 0.054 nM
- Kd (hPD-1-Fc [27]): < 0.01 nM
- Kd (hPD-1-his [28]): 0.274 nM
- IC50 (hPD-1-Fc [29]): 2.06 nM
- Inhibition % at 5.6 nM (hPD-1-Fc [29]): 91.2%
- Inhibition % at 50 nM (hPD-1-Fc [29]): 92.5%

B3: m3A7 (antibody, V domains shown)
VH: QVQLVQSGAEVKKPGASVKVSCKASGHTFTSYYIHWVRQAPGQGLEWMGIINPSGGSTSYAQKFQGRVTMTRDTSTSTVYMELSSLRSEDTAVYYCARDRAYGGAGDYWGQGTLVTVSS
VL: DIQMTQSPSSLSASVGDRVTITCRASRSISNWLAWYQQKPGKAPKLLIYAASSLQSGVPSRFSGSGSGTDFTLTISSLQPEDFATYYCQQSYSAPVTFGQGTKVEIK
notes: R3A9 derivative; also called 7115C
- EC50 [30]: 0.349 nM
- EC50 (mPD-1-his [31]): 0.251 nM
- EC50 [32]: 0.27 nM
- Kd (mPD-1-his [33]): 1.98 nM
- koff (mPD-1-his [33]): 0.000479 s⁻¹
- kon (mPD-1-his [33]): 241000 M⁻¹ s⁻¹
- EC50 [34]: 0.228 nM
- Kd (mPD-1-Fc [35]): 2.53 nM
- koff (mPD-1-Fc [35]): 0.000659 s⁻¹
- kon (mPD-1-Fc [35]): 261000 M⁻¹ s⁻¹
- Kd (hPD-1-Fc [36]): 19.9 nM
- koff (hPD-1-Fc [36]): 0.00263 s⁻¹
- kon (hPD-1-Fc [36]): 132000 M⁻¹ s⁻¹
- EC50 [37]: 0.63 nM
- EC50 (mPD-1-Fc [38]): 0.187 nM
- Kd (hPD-1-Fc [39]): 103 nM
- koff (hPD-1-Fc [39]): 0.0176 s⁻¹
- kon (hPD-1-Fc [39]): 171000 M⁻¹ s⁻¹
- EC50 [40]: 0.268 nM
- IC50 [41]: 0.537 nM
- IC50 (mPD-1-Fc [1]): 0.102 nM
- IC50, Promega blockade bioassay [42]: 0.561 nM
- Kd (mPD-1-his [43]): 3.03 nM
- koff (mPD-1-his [43]): 0.000823 s⁻¹
- kon (mPD-1-his [43]): 272000 M⁻¹ s⁻¹
- IC 50, Promega assay [44]: 0.0709 µg/mL
- EC50 (mPD-1-Fc [45]): 0.834 nM
- Kd (mPD-1-Fc [46]): 1.86 nM
- koff (mPD-1-Fc [46]): 0.000406 s⁻¹
- kon (mPD-1-Fc [46]): 219000 M⁻¹ s⁻¹
- EC50 [47]: 0.609 nM
- IC50 [48]: 37.8 nM
